# Results: US8697648B2, “Protein agent for diabetes treatment and β cell imaging” (Georgia State University Research Foundation, Inc., priority 2009, dated 2014)
# T1: GLP-1 receptor (Rattus norvegicus, UniProt P32301)
# T1 construct: It is well known that GLP-1R is expressed in RINm5F but not in CHO cells; endogenous in cells; host or cells: RINm5F rat insulinoma cells
# T1 sequence (P32301 22-463): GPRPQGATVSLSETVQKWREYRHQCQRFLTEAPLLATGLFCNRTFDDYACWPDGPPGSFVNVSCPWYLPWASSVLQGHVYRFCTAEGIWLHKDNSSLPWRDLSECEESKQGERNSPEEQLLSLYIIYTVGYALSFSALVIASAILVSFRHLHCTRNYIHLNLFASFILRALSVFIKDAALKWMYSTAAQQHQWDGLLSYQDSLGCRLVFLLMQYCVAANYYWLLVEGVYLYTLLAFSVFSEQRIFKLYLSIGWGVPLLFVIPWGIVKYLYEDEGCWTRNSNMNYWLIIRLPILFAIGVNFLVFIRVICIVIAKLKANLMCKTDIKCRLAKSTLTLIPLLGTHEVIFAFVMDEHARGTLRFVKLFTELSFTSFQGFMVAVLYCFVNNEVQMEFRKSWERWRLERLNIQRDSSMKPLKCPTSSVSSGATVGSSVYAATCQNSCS
# Tests used:
# CHO cells = assay: Immunostaining binding analysis, CHO cells (no GLP-1R); format: cell-based; conditions: Cal.GLP 10 μM, calbindin D9k 50 μM, 37° C., 30 mins
# Method: (§1) FIG. 10 is a series of digital images showing immunofluorescence staining of CHO or RINm5F cells that were treated by calbindin (50 μM) and Cal.GLP (10 μM). The cells were extensively washed after 30 min treatments under 37° C. in microscopic chamber slides and subsequently fixed. The cells were stained with the calbindin-specific antibody and visualized under confocal microscopy. The light shading represents antibody staining.
# (§2) To examine whether the developed protein indeed interacted with GLP-1R, the binding of the fusion protein with two cell lines, RINm5F and CHO cells was examined. It is well known that GLP-1R is expressed in RINm5F but not in CHO cells. Both RINm5F and CHO cells were incubated with fusion protein Cal.GLP (10 μM) or calbindin D9k (50 μM) at 37° C. for 30 mins. After extensive washing, the cells were fixed and subjected to immunostaining analyses using a rabbit polyclonal antibody against parental protein calbindin D9k. […] Similar binding analyses were carried out with RINm5F cells and a […] (αTC1).
# [1] = NMR and fluorescence spectrum analyses in different pH conditions; format: physicochemical; conditions: pH 3, 5, 7, 9, 10
# Method: FIG. 8 is a graph showing the fluorescence spectrum of the protein Cal.GLP (50 μM) at various pH values. The spectrum at each pH was compared to that of completely denatured Cal.GLP in 8M Urea.
# (§3) The fusion protein Cal.GLP was incubated with 75% human serum for a time course (up to 48 hrs). The protein was then analyzed by SDS-PAGE and stained by coomassie blue.
# [2] = Stability in 75% human serum (SDS-PAGE); format: in vitro ADME; conditions: 48 hour
# Method: FIG. 7 is a digital image of an SDS-PAGE analysis of serum stability of the fusion protein Cal.GLP. […] Cal.GLP was incubated with 75% human serum (S+CA) in […] at 37° C. for 1 hour (lane 3), 3 hours (lane 4), and 24 hours (lane 5). The mixture was separated by 16% SDS-PAGE and visualized by coomassie blue staining. Lane 1 is 75% human serum (S) and lane 2 is Cal.GLP only (CA). Lane M is molecular weight markers.
# as §3
# Stability to boiling = format: physicochemical; conditions: boiling for 10 minutes
# Method: This property led to a simplified one ion-exchange column chromatography procedure of protein purification. The bacterial lysate was boiled for 10 minutes. Most bacterial proteins were precipitated due to denaturing by boiling. The fusion protein stayed in supernatant. The protein was then further purified by an ion-exchange column. Approximately 30-50 mg purified fusion protein per liter of bacterial culture were obtained.
# diabetic mice [3] = assay: Blood glucose and glucose-dependent insulin secretion after co-administration with glucose (Example 16); format: in vivo; conditions: 25 nmole/kg agent with 15 mmole/kg glucose i.p.
# Method: FIG. 12 is a pair of graphs showing the changes in Δ blood glucose (Upper panel) and Δ insulin (bottom panel) in a group of 8 diabetic mice at different time points after injection of 15 mmole/kg of glucose with 25 nmole/kg of different agents.
# The effects of the developed agent on blood glucose lowering and stimulating of the glucose-dependent insulin secretion in diabetic mice were also examined. The animals first fasted for 6 hours. The protein agent (25 nmole/kg) and glucose (15 mmole/kg) were co-administrated via intraperitoneal injection with a group of eight diabetic mice. The blood glucose and insulin levels were measured at different time points. As controls, the same dose of glucose was administrated alone and co-administrated with the parental protein calbindin in separate groups of diabetic mice.
# diabetic mice [4] = assay: Four week daily treatment, blood glucose and body weight (Example 19); format: in vivo; conditions: 25 nmole/kg i.p. daily for 4 weeks
# Method: (§4) Agents (indicated in the figures 25 nmole/kg) were administrated by i.p. at daily at the same time 2:00 pm for 4 weeks. The animals were returned to the ages. Blood samples (about 20 ml) were draw daily at 5:00 pm for 4 weeks. Glucose in blood samples was measured. Blood glucose levels were plotted against day. Animal body weight was weighed daily before drawing blood. Average body weight of each group of six mice was plotted against days.
# as §4, with “The effects of the developed agent and PEGylated agents on blood glucose lowering in diabetic mice were examined in a four week treatment course. Agents” for “Agents”, “figures at” for “figures”, “i.p.” for “i.p. at”, “(−20 μl)” for “(about 20 ml)”
# CD-1 mice = assay: Toxicity in healthy CD-1 mice; format: in vivo; conditions: one or two doses of 100 μl (6 mM), 14 days
# Method: One group of mice (7 mice per group) were injected with one dose of 100 μl of the agent (6 mM) and another group of animals were injected with two doses of the agent (100 μl of agent (6 mM)) with 8 hours time interval between the two injections. The animals were returned to their cages for 14 days. Among 14 tested mice, no mouse died. All animals behaved normally (no change in eating habits. No abnormal weight gain or loss. No abnormal appearance on fur).
# [5] = Protein serum stability test in mice serum (SDS-PAGE); format: in vitro ADME; conditions: mice serum 1:1, 37° C., 24 hrs
# Method: FIG. 5 is a digital image of a gel analysis of a protein serum stability test. A 16% SDS-PAGE without DTT was used to analysis the protein level after incubation with mice serum for certain time. Lane 1: mice serum only; Lane 2: fusion protein only; Lanes 3-5: fusion protein incubated with 50% serum for 1 hr, 3 hrs, and 24 hrs respectively; Lane 6: PEGylated protein only; Lanes 7-9: PEGylated protein incubated with 50% serum for 1 hr, 3 hrs, and 24 hrs respectively.
# The fusion protein and PEGylated protein were incubated with mice serum at a ratio 1:1, in 37° C. for 1 hr, 3 hrs and 24 hrs. Samples were then analyzed by 16% SDS-PAGE.
# The fusion protein and PEGylated protein were incubated with mice serum at a 1:1 ratio at 37° C. for 1 hr, 3 hrs, and overnight. SDS-PAGE was then used to analyze the protein stability.
# αTC1 cells = assay: Immunostaining binding analysis, αTC1 cells; format: cell-based
# Method: as §2
# RINm5F cells = assay: Immunostaining binding analysis, RINm5F cells (GLP-1R expressed); format: cell-based, rat; conditions: Cal.GLP 10 μM, calbindin D9k 50 μM, 37° C., 30 mins
# Method: as §1, §2
# [6] = tested on: Diabetic mice (BKS.Cg-Lepr^db/db); assay: Blood glucose lowering in fed diabetic mice (Example 15); format: in vivo
# Method: The animals were re-feed for 25 minutes 5 hours after drug administration and 35 minutes before the last time point of blood sample collection. The A Blood Glucose (mg/dl) was determined by calculating the difference between the measured blood glucose levels at any given time point and the initial blood glucose levels. The initial blood glucose levels were measured after feeding for 20 min and before the drug administration (time zero). The error bars represent standard deviations of measurements of eight mice.
# The developed protein agent was tested to determine whether it had the in vivo capability of lowering blood glucose in diabetic subjects. Diabetic mice (BKS.Cg-Lepr^db/db, The Jackson Laboratory) were used as test subjects. A group of six animals first fasted for 6 hours. After fasting, the animals were fed for 30 minutes. The protein agent was administered after feeding by intraperitoneal injection at a dose of 25 nmole/kg. The animals were fed again for 30 mins, 5 hrs after agent administration. Blood samples were taken at different time points after administration of the agent. Glucose concentration in the blood samples was measured using a commercially available kit.
# [7] = R1 and R2 relaxivity with a relaxometer; format: physicochemical; conditions: 1.4 T
# Method: To ensure that the fusion protein is applicable as a MRI contrast agent, the Gd^3+ binding property and R1/R2 relaxivity of the fusion protein were tested using well-known methods.
# GLP-1 receptor = biological target: T1, GLP-1 receptor; assay: Cell-based intracellular cAMP assay (Lance cAMP 384 kit) in RINm5F cells; conditions: concentration around 200 μM
# Method: The cells were harvested 30 minutes post treatments. Cell lysates were prepared from the harvested cells. The cAMP levels in the lysate were then measured and expressed as pmole values. The error bars represent standard deviations of four times of measurements.
# A Lance cAMP 384® Kit (Perkin Elmer, Inc) was used to compare the incretin effects of fusion protein and PEGylated protein. Rat Insulinoma cells (RINm5F) were cultured with RPMI1640 with 10% FBS in 75 cm^2 cell culture flasks. Cells are harvested and washed three times with HBSS (Invitrogen Corp.) buffer. A series of 5 μl test protein and 5 μl cell suspension with 5000 cells in stimulation buffer (1×HBSS buffer with 5 mM HEPES, 0.1% BSA and 150 mM IBMX) and Alexa, biotin labeled cAMP antibodies were incubated at 37° C. for 15 mins in 384-well plate. […] A VICTOR^3 plated reader (PerkinElmer, Inc.) was used to detect the fluorescence signal at excitation 340 nm and emission 665 nm and 615 nm. The collected data was then analyzed with the equation of F=F665 nm/F615 nm. […]
# The effects of the PEGylated proteins and unPEGylated protein in stimulating the cAMP production were examined in rat insulinoma β-cells RINm5F. The cAMP production was analyzed using a commercial cAMP kit (PerkinElmer).
# [8] = in vivo
molecule,measurement,setting,value
"Cal.GLP: GLP-1 grafted into human calbindin D9k by replacing a C-terminal helix; SEQ ID NO: 14 (protein, Fusion protein Cal.GLP) MSTKKSPEELKRIFEKYAAKEGDPDQLSKDELKLLIQAEFPSLLKGPNTLDDLFQELDKNGHAEGTFTSDVSSYLEGQAAKEFIAWLVKGRG",binding to CHO cells,CHO cells,not CHO cells
same,folding in different pH conditions,[1],remained folded in wide ranges of pH conditions
same,integrity after incubation with human serum,[2],remained intact
same,integrity and folding after boiling,Stability to boiling,remained intact and folded
same,blood glucose lowering post glucose and drug administration,diabetic mice [3],dramatic blood glucose lowering
same,duration of increase in insulin and decrease in glucose,diabetic mice [3],~2 h
same,glucose lowering and duration compared to exendin-4,diabetic mice [3],larger glucose lowering in longer duration
same,body weight change,diabetic mice [4],did not result significant weight gain or lose
same,lowering and stabilizing the blood glucose,diabetic mice [4],stronger effects in lowering and stabilizing the blood glucose
same,acute toxicity,CD-1 mice,did not have acute toxicity
same,mortality,CD-1 mice; 14 mice,no mouse died
same,degradation in mice serum,[5],no degradation
same,binding to αTC1 cells,αTC1 cells,not to αTC1 cells
same,binding to RINm5F cells,RINm5F cells,bound to RINm5F cells
same,blood glucose decrease and effective time compared to exendin-4,[6]; 25 nmole/kg i.p.,bigger blood glucose decrease and significantly longer effective time
same,drop of blood glucose levels,"[6]; 25 nmole/kg i.p., 4 hour time course",about 215 mg/dl
same,blood glucose levels after re-feed,"[6]; 6 hours post administration, one hour after re-feed",minor increase in blood glucose levels
"calbindin: parental host protein human Calbindin D9k, negative control; SEQ ID NO: 13 (protein, human calbindin D9K) MSTKKSPEELKRIFEKYAAKEGDPDQLSKDELKLLIQAEFPSLLKGPNTLDDLFQELDKNGDGEVSFEEFQVLVKKISQ",binding to CHO cells,CHO cells,did not bind to either cell
same,blood glucose lowering post glucose and drug administration,diabetic mice [3],did not
same,binding to RINm5F cells,RINm5F cells,did not bind to either cell
same,change of blood glucose levels,"[6]; control group, same dose (25 nmole/kg)",decreased slightly
same,R1,[7],6.58 mM^−1S^−1
same,increase of intracellular cAMP level,GLP-1 receptor,could not increase cell intracellular cAMP level
same,blood circulation time,[8],more than 24 hours
